Key:
Assay in all cases: cell-based or functional assay
[1] = target: HIV-1 envelope of pseudovirus TRJO4551.58 (HIV-1)
[2] = target: HIV-1 Env of pseudovirus Du422.1 (HIV-1)
[3] = target: HIV-1 Env of pseudovirus 231965.c01 (HIV-1)
[4] = target: HIV-1 envelope of pseudovirus C3347.c11 (HIV-1)
[5] = target: HIV-1 envelope of pseudovirus YU-2 (HIV-1)
[6] = target: HIV-1 envelope of pseudovirus T257-31 (HIV-1)
[7] = target: HIV-1 envelope of pseudovirus BJOX010000.06.2 (HIV-1)
[8] = target: HIV-1 envelope of pseudovirus 6041.v3.c23 (HIV-1)
[9] = target: HIV-1 envelope spike of pseudovirus 6535.3 (HIV-1)
[10] = target: HIV-1 Env of pseudovirus 246F C1G (HIV-1)
[11] = target: HIV-1 Env of pseudovirus 211-9 (HIV-1)
[12] = target: HIV-1 envelope of pseudovirus CNE21 (HIV-1)
[13] = target: HIV-1 envelope of pseudovirus C4118.c09 (HIV-1)
[14] = target: HIV-1 envelope of pseudovirus CNE17 (HIV-1)
[15] = target: HIV-1 envelope of pseudovirus BF1266.431a (HIV-1)
[16] = target: HIV-1 envelope of pseudovirus 6535.3 (HIV-1)
[17] = target: HIV-1 envelope of pseudovirus WITO4160.33 (HIV-1)
[18] = target: HIV-1 envelope of pseudovirus ZM247v1(Rev-) (HIV-1)
[19] = target: HIV-1 envelope spike of pseudovirus QH0692.42 (HIV-1)
[20] = target: HIV-1 Env of pseudovirus 191821_E6_1 (HIV-1)
[21] = target: HIV-1 envelope of pseudovirus Ce704809221_1B3 (HIV-1)
[22] = target: HIV-1 Env of pseudovirus T257-31 (HIV-1)
[23] = target: HIV-1 envelope of pseudovirus THRO4156.18 (HIV-1)
[24] = target: HIV-1 Env of pseudovirus BJOX015000.11.5 (HIV-1)
[25] = target: HIV-1 Env of pseudovirus SC422661.8 (HIV-1)
[26] = target: HIV-1 envelope of pseudovirus CNE5 (HIV-1)
[27] = target: HIV-1 envelope of pseudovirus 62357_14_03_4589 (HIV-1)
[28] = target: HIV-1 envelope of pseudovirus Ce1172_H1 (HIV-1)
[29] = target: HIV-1 Env of pseudovirus X1193_c1 (HIV-1)
[30] = target: HIV-1 envelope of pseudovirus 3415.v1.c1 (HIV-1)
[31] = target: HIV-1 Env of pseudovirus BF1266.431a (HIV-1)
[32] = target: HIV-1 Env of pseudovirus 6535.3 (HIV-1)
[33] = target: HIV-1 envelope of pseudovirus T251-18 (HIV-1)
[34] = target: HIV-1 Env of pseudovirus CNE21 (HIV-1)
[35] = target: HIV-1 envelope spike of pseudovirus BaL.26 (HIV-1)
[36] = target: HIV-1 Env of pseudovirus Du172.17 (HIV-1)
[37] = target: HIV-1 Env of pseudovirus 191084 B7-19 (HIV-1)
[38] = target: HIV-1 envelope of pseudovirus 3016.v5.c45 (HIV-1)
[39] = target: HIV-1 envelope of pseudovirus CAP210.2.00.E8 (HIV-1)
[40] = target: HIV-1 Env of pseudovirus CAP210.2.00.E8 (HIV-1)
[41] = target: HIV-1 envelope of pseudovirus Du156.12 (HIV-1)
[42] = target: HIV-1 Env of pseudovirus X2131_C1_85 (HIV-1)
[43] = target: HIV-1 envelope of pseudovirus CNE20 (HIV-1)
[44] = target: HIV-1 envelope of pseudovirus ZM214M.PL15 (HIV-1)
[45] = target: HIV-1 envelope of pseudovirus 191821_E6_1 (HIV-1)
[46] = target: HIV-1 envelope of pseudovirus Q23.17 (HIV-1)
[47] = target: HIV-1 envelope of pseudovirus HIV-16055-2.3 (HIV-1)
[48] = target: HIV-1 Env of pseudovirus PVO.4 (HIV-1)
[49] = target: HIV-1 Env of pseudovirus Ce704809221_1B3 (HIV-1)
[50] = target: HIV-1 envelope of pseudovirus REJO4541.67 (HIV-1)

With PGT121 (antibody) the IC50 (TZM-bl neutralization) [1] was 3.73 µg/mL, the IC80 (TZM-bl neutralization) [2] was 0.131 µg/mL and the IC80 (TZM-bl neutralization) [3] was > 50 µg/mL. The IC50 (TZM-bl neutralization) [4] was > 50 µg/mL, the IC50 (TZM-bl neutralization) [5] was 0.098 µg/mL and the IC50 (TZM-bl neutralization) [6] was > 50 µg/mL. For the same substance, the IC50 (TZM-bl neutralization) [7] was > 50 µg/mL, the IC50 (TZM-bl neutralization) [8] was > 50 µg/mL and the IC50 (TZM-bl neutralization assay) [9] was 0.007 µg/mL. The IC80 (TZM-bl neutralization assay) [9] was 0.041 µg/mL, the IC80 (TZM-bl neutralization) [10] was 0.287 µg/mL and the IC80 (TZM-bl neutralization) [11] was 8.84 µg/mL. For the same substance, the IC50 (TZM-bl neutralization) [12] was 0.02 µg/mL, the IC50 (TZM-bl neutralization) [13] was > 50 µg/mL and the IC50 (TZM-bl neutralization) [14] was 45.3 µg/mL. For the same substance, the IC50 (TZM-bl neutralization) [15] was > 50 µg/mL, the IC50 (TZM-bl neutralization) [16] was 0.008 µg/mL and the IC50 (TZM-bl neutralization) [17] was 0.459 µg/mL. For the same substance, the IC50 (TZM-bl neutralization) [18] was 0.027 µg/mL, the IC50 (TZM-bl neutralization assay) [19] was 1.08 µg/mL and the IC80 (TZM-bl neutralization) [20] was > 50 µg/mL. For the same substance, the IC50 (TZM-bl neutralization) [21] was 0.098 µg/mL, the IC80 (TZM-bl neutralization) [22] was > 50 µg/mL and the IC50 (TZM-bl neutralization) [23] was > 50 µg/mL. The IC80 (TZM-bl neutralization) [24] was > 50 µg/mL, the IC80 (TZM-bl neutralization) [25] was 0.46 µg/mL and the IC50 (TZM-bl neutralization) [26] was > 50 µg/mL. For the same substance, the IC50 (TZM-bl neutralization) [27] was 1.04 µg/mL, the IC50 (TZM-bl neutralization) [28] was 0.023 µg/mL and the IC80 (TZM-bl neutralization) [29] was 0.202 µg/mL. The IC50 (TZM-bl neutralization) [30] was > 50 µg/mL, the IC80 (TZM-bl neutralization) [31] was > 50 µg/mL and the IC80 (TZM-bl neutralization) [32] was 0.021 µg/mL. The IC50 (TZM-bl neutralization) [33] was > 50 µg/mL, the IC80 (TZM-bl neutralization) [34] was 0.061 µg/mL and the IC50 (TZM-bl neutralization assay) [35] was 0.021 µg/mL. The IC80 (TZM-bl neutralization assay) [35] was 0.081 µg/mL, the IC80 (TZM-bl neutralization) [36] was 0.89 µg/mL and the IC80 (TZM-bl neutralization) [37] was 0.128 µg/mL. The IC50 (TZM-bl neutralization) [38] was > 50 µg/mL, the IC50 (TZM-bl neutralization) [39] was 5.08 µg/mL and the IC80 (TZM-bl neutralization) [40] was > 50 µg/mL. It also gave an IC50 (TZM-bl neutralization) [41] of 0.007 µg/mL, an IC80 (TZM-bl neutralization) [42] of 0.058 µg/mL and an IC50 (TZM-bl neutralization) [43] of 0.002 µg/mL. For the same substance, the IC50 (TZM-bl neutralization) [44] was 0.236 µg/mL, the IC50 (TZM-bl neutralization) [45] was > 50 µg/mL and the IC50 (TZM-bl neutralization) [46] was 0.01 µg/mL. It also gave an IC50 (TZM-bl neutralization) [47] of 0.444 µg/mL, an IC80 (TZM-bl neutralization) [48] of 0.945 µg/mL and an IC80 (TZM-bl neutralization) [49] of 0.492 µg/mL. The IC50 (TZM-bl neutralization) [50] was 3.61 µg/mL.
